Experimental findings from paper doi:10.1101/2022.03.25.485784 (bioRxiv, 2022) are described below.

This data set deals with the molecule itself. In words: cryo-EM structure.

B1: dtSARM1, the full-length SARM1 with the N-terminal 27-aa segment replaced by a twin-Strep and Flag-tag (enzyme)
chain: LAVPGPDGGGGTGPWWAAGGRGPREVSPGAGTEVQDALERALPELQQALSALKQAGGARAVGAGLAEVFQLVEEAWLLPAVGREVAQGLCDAIRLDGGLDLLLRLLQAPELETRVQAARLLEQILVAENRDRVARIGLGVILNLAKEREPVELARSVAGILEHMFKHSEETCQRLVAAGGLDAVLYWCRRTDPALLRHCALALGNCALHGGQAVQRRMVEKRAAEWLFPLAFSKEDELLRLHACLAVAVLATNKEVEREVERSGTLALVEPLVASLDPGRFARCLVDASDTSQGRGPDDLQRLVPLLDSNRLEAQCIGAFYLCAEAAIKSLQGKTKVFSDIGAIQSLKRLVSYSTNGTKSALAKRALRLLGEEVPRPILPSVPSWKEAEVQTWLQQIGFSKYCESFREQQVDGDLLLRLTEEELQTDLGMKSGITRKRFFRELTELKTFANYSTCDRSNLADWLGSLDPRFRQYTYGLVSCGLDRSLLHRVSEQQLLEDCGIHLGVHRARILTAAREMLHSPLPCTGGKPSGDTPDVFISYRRNSGSQLASLLKVHLQLHGFSVFIDVEKLEAGKFEDKLIQSVMGARNFVLVLSPGALDKCMQDHDCKDWVHKEIVTALSCGKNIVPIIDGFEWPEPQVLPEDMQAVLTFNGIKWSHEYQEATIEKIIRFLQGRSSRDSSAGSDTSLEGAAPMGPT
Consider B1, for which the “stoichiometry N” value stood at 8.

The stoichiometry N is a count of units in the complex or per binding partner.
